Assay results as given in the supplement of paper PMC9170038.

Tested on: MS2 coat protein
Test: apparent KD of MS2 coat protein; designed switch direction (-1 OFF switch, 1 ON switch): -1; higher = weaker reporter binding
How it was run: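 SNAP-549-labelled MS2 coat protein was titrated, doubling from 0.7 or 1.5 nM to 3 µM, over designed RNA switches transcribed on Illumina chips by stalled E. coli RNA polymerase. Runs were done without input, with 200 uM small-molecule ligand, or with an oligonucleotide input. Apparent KD is the per-design median over clusters of curve-fitted normalised fluorescence.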

[1] = Eterna round: R95, input ligand: microRNA oligo, concentration not stated
[2] = input ligand: microRNA oligo, concentration not stated
[3] = Eterna round: R95, input ligand: FMN 200 uM
[4] = Eterna round: R95, input ligand: none

“UUUACAAGCUUUUGAUCCCACAUGAGGAUCACCCAUGUUGCUGCCGGUGACGGUAGCAUAACAAAUGCUCGUCUUAU [JL TOV1 3.55] (Eterna round: R97, puzzle: Sensor, turn-off variant 1)” was tested, and the “apparent KD of MS2 coat protein” value (input ligand: FMN 200 uM) was 846 nM and the “apparent KD of MS2 coat protein” value (input ligand: none) was 1160 nM.

With “UUUAGUAUCUAGGAUAUCUAGUACAUAGUAUCUAGAGAAGGAGAUACAUGAGGAUCACCCAUGUUCUGUGUUCU [Exclusion 6 - 1:a] (puzzle: Exclusion 6)” the “apparent KD of MS2 coat protein” value [1] was 22.4 nM.

“UUUAGUUCAGGAUAUGAUGAAUUAAACAUGAGGAUCACCCAUGUAGAUCCUGAAUUAACAUCAGAAGGGAACAUUU [JL-ex5-4.48 Brourd mod] (Eterna round: R97, puzzle: Exclusion 5)” was tested, and the “apparent KD of MS2 coat protein” value (input ligand: FMN 200 uM) was 41.8 nM and the “apparent KD of MS2 coat protein” value (input ligand: none) was 15 nM.

“UUUAGUUCAGGAUAUGUAGACAUUAACAUGAGGAUCACCCAUGUAGAUCCUGAAUUAACUACAGAAGGGAGCAUUU [Mod of Brourd 8 - Jieux - Exclusion 5] (Eterna round: R97, puzzle: Exclusion 5)” was tested, and the “apparent KD of MS2 coat protein” value (input ligand: FMN 200 uM) was 19.3 nM and the “apparent KD of MS2 coat protein” value (input ligand: none) was 15.3 nM.

In the case of “UUUAGUUCAGGAUAUGUAGAUUUUAACAUGAGGAUCACCCAUGUAGAUCCUGAAUUAACUACAGAAGGGAACAUUU [Exclusion 5: 2:a] (Eterna round: R96, puzzle: Exclusion 5)”, the “apparent KD of MS2 coat protein” value (input ligand: FMN 200 uM) is reported as 94.3 nM, the “apparent KD of MS2 coat protein” value [2] is reported as 20.2 nM and the “apparent KD of MS2 coat protein” value (input ligand: none) is reported as 24.3 nM.

“UUUAGUUCAGGAUAUGUAGAUUUUAACAUGAGGAUCACCCAUGUAGAUCCUGAAUUAACUACAGAAGGGAACAUUU [Exclusion 5: 2:a] (puzzle: Exclusion 5)” was tested, and the “apparent KD of MS2 coat protein” value [1] was 24.9 nM.

In the case of “UUUAGUUCAGGAUAUGUAGAUUUUAACAUGAGGAUCACCCAUGUAGAUCCUGAAUUAACUACAGAAGGGAACAUUU [Mod of Brourd 1 - Jieux - Exclusion 5] (Eterna round: R97, puzzle: Exclusion 5)”, the “apparent KD of MS2 coat protein” value (input ligand: FMN 200 uM) is reported as 77.2 nM and the “apparent KD of MS2 coat protein” value (input ligand: none) is reported as 22.5 nM.

With “UUUAGUUCAGGAUAUGUAGUUUUAAACAUGAGGAUCACCCAUGUAGAACCUGAUCCUGCUACAGAAGGGAACAUUU [Mat - Exclusion 5 - Eli Mod - D14] (Eterna round: R97, puzzle: Exclusion 5)” the “apparent KD of MS2 coat protein” value (input ligand: FMN 200 uM) was 32 nM and the “apparent KD of MS2 coat protein” value (input ligand: none) was 18.2 nM.

For “UUUAUAAUUUCAAUCUUCGCCAGCAAACUUACGCUAGCCACAUGAGGAUCACCCAUGUUUUUUGUUCGUUUUAUUCU [Veedcera] (puzzle: Sensor v3, turn-off variant 2)”, the “apparent KD of MS2 coat protein” value [3] was 18 nM, the “apparent KD of MS2 coat protein” value [1] was 57.5 nM and the “apparent KD of MS2 coat protein” value [4] was 19.5 nM.

“UUUAUAAUUUCAAUCUUCGCUGGCAAACUUACGCCAGCCACAUGAGGAUCACCCAUGUUUUUUGUUCGUUUUACUCU [Tetevea] (puzzle: Sensor v3, turn-off variant 2)” was tested, and the “apparent KD of MS2 coat protein” value [3] was 18 nM, the “apparent KD of MS2 coat protein” value [1] was 64 nM and the “apparent KD of MS2 coat protein” value [4] was 22.5 nM.

“UUUAUAUAGUAAGGAUAUGUAUUAAUUUUAUAGACAGAAGGUACUGACAUGAGGAUCACCCAUGUUUUAGUGUGGGCAUGUAGU [JMF's solution 94] (Eterna round: R96, puzzle: Exclusion NG 1)” was tested, and the “apparent KD of MS2 coat protein” value [2] was 299 nM.

“UUUAUGUCAGGAUAUACAUGAGGAUCACCCAUGUAUAUCUUAAGGUAUACAUGGGAAUGUAGAAGGGACCUCCU [Omei Ex3 Pseudoloop 7] (Eterna round: R97, puzzle: Exclusion 3)” was tested, and the “apparent KD of MS2 coat protein” value (input ligand: FMN 200 uM) was 40.7 nM and the “apparent KD of MS2 coat protein” value (input ligand: none) was 41.3 nM.

“UUUAUUUUGCAAGGAUAUGUUUAAUUUUAGUUUCCUUACACAUGAGGAUCACCCAUGUUAUACUUACAGAAGGUGCAUAAUUUU [JR_ExcNG2_Sub038] (Eterna round: R96, puzzle: Exclusion NG 2)” was tested, and the “apparent KD of MS2 coat protein” value [2] was 132 nM.

With “UUUCAGCAAGGAUAUACGGGCUGUGCUUUUCAUUUCUUACAACAUGAGGAUCACCCAUGUAGAAGGUGCAACUU [Ex2 #10] (Eterna round: R97, puzzle: Exclusion 2)” the “apparent KD of MS2 coat protein” value (input ligand: FMN 200 uM) was 110 nM and the “apparent KD of MS2 coat protein” value (input ligand: none) was 26.5 nM.

With “UUUCAUCAUGUAGGAUAUGCGUGGCAAAGCUAUGCAGAAGGACAUGAGGAUCACCCAUGUUCUAGCGUCUGCGUACAGAUGCUA [Mat - Exclusion NG 1 - Mod of JL - D73] (Eterna round: R96, puzzle: Exclusion NG 1)” the “apparent KD of MS2 coat protein” value (input ligand: FMN 200 uM) was 404 nM, the “apparent KD of MS2 coat protein” value [2] was 43.2 nM and the “apparent KD of MS2 coat protein” value (input ligand: none) was 68 nM.

For “UUUCCCUGGCAAGGAUAUCCUGUGCGGUUCCGGCUCGUGUCUGUUACAUGAGGAUCACCCAUGUGGGAGAAGGUGCCUGUGGUU [Design 90] (Eterna round: R96, puzzle: Exclusion NG 2)”, the “apparent KD of MS2 coat protein” value (input ligand: FMN 200 uM) was 390 nM, the “apparent KD of MS2 coat protein” value [2] was 173 nM and the “apparent KD of MS2 coat protein” value (input ligand: none) was 220 nM.

“UUUCCCUGUGUGAGGAUAUACUUGUUUGGGUUUUUGUAGAAGGCACAUGAGGAUCACCCAUGUACUCUGUCGUG [JR_BME4_Sub021] (puzzle: Brourd's mod of Exclusion 4)” was tested, and the “apparent KD of MS2 coat protein” value [1] was 21.1 nM.

In the case of “UUUCCUUGUGUGAGGAUAUACUUGUUUGUGUUUUUGUAGAAGGCACAUGAGGAUCACCCAUGUACUCUUUCCUG [JR_BME4_Sub023] (Eterna round: R96, puzzle: Brourd's mod of Exclusion 4)”, the “apparent KD of MS2 coat protein” value (input ligand: FMN 200 uM) is reported as 68.6 nM, the “apparent KD of MS2 coat protein” value [2] is reported as 34.7 nM and the “apparent KD of MS2 coat protein” value (input ligand: none) is reported as 37.7 nM.

“UUUCCUUGUGUGAGGAUAUACUUGUUUGUGUUUUUGUAGAAGGCACAUGAGGAUCACCCAUGUACUCUUUCCUG [JR_BME4_Sub023] (puzzle: Brourd's mod of Exclusion 4)” was tested, and the “apparent KD of MS2 coat protein” value [1] was 34.2 nM.
